Molecular target: CGS20
Assay: competition: pancreastatin peptide (0.5 µg per tube) added in second incubation of CGS06/CGS20* IRMA

B1: synthetic peptide corresponding to pancreastatin (SEQ ID NO:1 amino acids 250 to 301 of human CgA) (peptide)
peptide: GESRSEALAVDGAGKPGAEEAQDPEGKGEQEHSQQKEEEEEMAVVPQGLFRG
% inhibition: 86%
